Tests used:
[1] = system: imiquimod (IMQ) induced psoriasis; format: in vivo
Excerpt: Two anti-IL-22 antibodies of the present invention, CPS02 and CPS09, were used for the treatment of imiquimod (IMQ) induced psoriasis in mice (FIG. 12). The mice were male BALB/c mice, which were an albino, laboratory-bred strain of the house mouse. A total of 70 mice, at a body weight of 18-20 g, were acclimated for 7 days before induction of psoriasis.
The 70 mice were randomized into 7 groups (10 mice in each group). One group (group 1) was used as a negative control to which no imiquimod was administered to the mice, which was instead replaced with Vaseline. […] The other 6 groups (groups 2-7) were dosed topically with imiquimod at a dosage of 82.5 mg/mouse (5% cream) once daily (qd) for 8 consecutive days from day 0 to day 7 (20 mg for the left ear, 62.5 mg for the shaved back) to induce psoriasis. The back skin was shaved to expose an area of 2×3 cm^2. For the Vaseline control group, the Vaseline was also applied at 82.5 mg/mouse once daily (qd) for 8 consecutive days (20 mg for left ear, 62.5 mg for the shaved back) from day 0 to day 7.
Group 2 was a group of psoriasis-induced mice that were untreated to serve as a control group. The treatment period completely overlapped with the imiquimod application period (day 0 to day 7). For group 2, the mice received both imiquimod and […] on each day of the 8-day period (day 0 to day 7). For the groups that received intravenous (I.V.) injection, the imiquimod was applied within one hour after the I.V. injection on days 0 and 3.
Group 3 was treated with the steroid dexamethasone, which is a current therapeutic treatment used for psoriasis. The dexamethasone was topically applied twice a day (BID) for 8 days. Group 4 was treated with phosphate-buffered saline (PBS), which served as a negative control. Group 5 was treated with an isotype control antibody that also served as a negative control. Groups 6-7 were treated with the anti-IL22 antibodies CPS02 (A) and CPS09 (B), respectively. The treatments for Groups 4-7 were administered by a single intravenous (I.V.) injection on each of days 0 and 3. 3 mice in group 6 died on day 0 and 2 died on day 1. On day 3, the I.V. injection dosage for this group was decreased to 10 mg/kg.
During the 8 day treatment period, the ear thickness was measured on days 0, 3, 5 and 7. The body weight and various skin scores were recorded daily. Pictures of the psoriasis sites were taken on days 0, 3, 5 and 7. On days 1 and 4, about 60 μl blood was collected via retro-orbital bleeding over 24 hours and placed in BD Microtainer® tubes coated with dipotassium ethylenediaminetetraacetic acid (K2EDTA). Plasma was then collected (to get at least 20 μl plasma) and stored at −80° C.
Skin scores for erythema, scales and thickness were measured daily according to an established grading system. The erythema, scales and thickness were scored independently on a scale of from 0 to 4: 0 means none, 1 means slight, 2 means moderate, 3 means marked, and 4 means very marked. The cumulative (total) skin score was also calculated.
The effects of the treatments were analyzed statistically using two-way analysis of variance (ANOVA, Bonferroni post-tests) or one-way ANOVA analysis. For comparisons between the treatment groups and the control group, the p value is denoted in FIGS. 13-18 as (*) if less than 0.05, (**) if less than 0.01, or (***) if less than 0.001.

[2] = Aggregate formation at 10 mg/mL in PBS; format: physicochemical
[3] = molecular target: T1, mouse IL-22 (Mus musculus, UniProt Q9JJY9); experiment: SPR capture assay, affinity to mouse IL-22; format: binding; conditions: mouse IL-22, SPR
T1 sequence (Q9JJY9 34-179): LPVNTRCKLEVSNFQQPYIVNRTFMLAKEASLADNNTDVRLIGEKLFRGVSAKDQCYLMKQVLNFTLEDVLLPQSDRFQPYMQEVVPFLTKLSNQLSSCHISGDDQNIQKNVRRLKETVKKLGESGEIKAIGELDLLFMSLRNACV
Description: (§1) The affinity of the 10 antibodies of Table 1 was measured by Surface Plasma Resonance (SPR) using a capture assay in PBS buffer to generate binding curves at four different concentrations of each antibody (0.05, 0.1, 0.5, and 1.0 μg/ml). The Ka, Kd and KD values for the mutant antibodies were calculated from the curves for each of the antibodies.
(§2) The affinity of the 10 antibodies of Table 1 was measured by Surface Plasma Resonance (SPR) using a capture assay on a SPR-2 instrument (SierraSensiors, Hamburg, Germany). The antigens hIL-22 and mIL-22 were immobilized on chips. The running buffer for the assay contained 10 mM HEPES with a pH of 7.4, 500 mM NaCl, and 0.05% TWEEN® 20. […] The off-rate was measured for 6 minutes. Binding constants were calculated using the curve fitting software Analyzer2 (Sierra Sensors). Sensorgrams were analyzed with the instrument specific software and with BIAevaluation 4.1 software. The binding data were analyzed using the Langmuir 1:1 model (human IL-22) or a model for a heterogeneous ligand ([…]).
(§3) The antibodies were tested at four different concentrations of each antibody: 0.33 nM, 0.67 nM, 3.3 nM, 6.7 nM for hIL-22; 1, 2, […] for mIL-22. Antibody CPE-LC-E049K was used as a control.

[4] = molecular target: T2, human IL-22 (Homo sapiens, UniProt Q9GZX6); experiment: SPR capture assay, affinity to human IL-22; format: binding; conditions: human IL-22, SPR
T2 sequence (Q9GZX6 34-179): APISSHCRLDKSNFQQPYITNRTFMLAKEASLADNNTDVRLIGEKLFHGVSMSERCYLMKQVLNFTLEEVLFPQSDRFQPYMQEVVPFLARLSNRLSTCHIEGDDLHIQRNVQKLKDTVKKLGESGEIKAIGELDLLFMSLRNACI
Description: as §1, §2, §3

[5] = Thermostability; format: physicochemical
[6] = group 6 (10 mice), 20 mg/kg I.V. on day 0

B1: CPS02: mutant anti-IL-22 antibody binding human and mouse IL-22; light chain LC-06, heavy chain HC-08 (antibody, V domains shown)
VH: QVQLVQSGAEVKKPGASVKVSCKASGYIFRSYWIHWIRQPPGKGLEWIGRIYPGTGRTYYNEKFKGRVTISADKSISTAYLQWSSLKASDTAMYYCARSYDSSVAYWGQGTLVTVSS
VL: AIQLTQSPSSLSASVGDRVTITCSASSSVSYMHWYLQKPGQSPQLLIYKTRKLASGVPSRFSGSGSGTDFTFTISSLEAEDAATYYCQQWSSNPYITFGQGTKVEIKR
- reduction in body weight of the treated mice ([1]; IMQ psoriasis mice, days 0-7, in comparison to dexamethasone / PBS (FIG. 13)): less reduction in body weight
- mice died on day 0 [1, 6]: 3 mice
- mice died on day 1 [1, 6]: 2 mice
- ear skin thickness ([1]; vs negative controls (isotype matched antibody, PBS, vehicle) (FIG. 14)): less
- skin erythema score ([1]; vs negative controls (isotype matched antibody, PBS, vehicle) (FIG. 15)): lower
- skin scale score ([1]; vs negative controls (isotype matched antibody, PBS, vehicle) (FIG. 16)): lower
- skin thickness ([1]; vs negative controls (isotype matched antibody, PBS, vehicle) (FIG. 17)): lower
- total skin score ([1]; vs negative controls (isotype matched antibody, PBS, vehicle) (FIG. 18)): lower
- Aggregate formation at 10 mg/mL in PBS [2]: no
- ka [3]: 166000 M·s
- kd [3]: 0.000545 s⁻¹
- ka [4]: 1.87e+06 M·s
- kd [4]: 4.67e-05 s⁻¹
- Thermostability (% remaining activity 60 min); of duplicate samples [5]: 104%

Reference: patent publication US11834472B2, “Anti-IL-22 antibodies, antibody fragments, their immunoconjugates and uses thereof” (BioAtla, Inc., priority 2018, dated 2023)
